This is an account of results in patent US20220177604A1 (ARGENX, published 2022).

The target of this experiment is T1, human immunoglobulin E (hIgE) (human, UniProt P01854-1 1-428).
T1 construct: also called human IgE; Native IgE (Abcam)
Description: SPR (Biacore) on hIgE. (In general: In SPR one partner is held on a chip, and binding of the other changes the refractive index at the surface.)
Description: The ratio of KD measured at pH 5.5 versus KD measured at pH 7.4 was calculated for each of the CL-2C antibodies.

T1 sequence (P01854 whole entry): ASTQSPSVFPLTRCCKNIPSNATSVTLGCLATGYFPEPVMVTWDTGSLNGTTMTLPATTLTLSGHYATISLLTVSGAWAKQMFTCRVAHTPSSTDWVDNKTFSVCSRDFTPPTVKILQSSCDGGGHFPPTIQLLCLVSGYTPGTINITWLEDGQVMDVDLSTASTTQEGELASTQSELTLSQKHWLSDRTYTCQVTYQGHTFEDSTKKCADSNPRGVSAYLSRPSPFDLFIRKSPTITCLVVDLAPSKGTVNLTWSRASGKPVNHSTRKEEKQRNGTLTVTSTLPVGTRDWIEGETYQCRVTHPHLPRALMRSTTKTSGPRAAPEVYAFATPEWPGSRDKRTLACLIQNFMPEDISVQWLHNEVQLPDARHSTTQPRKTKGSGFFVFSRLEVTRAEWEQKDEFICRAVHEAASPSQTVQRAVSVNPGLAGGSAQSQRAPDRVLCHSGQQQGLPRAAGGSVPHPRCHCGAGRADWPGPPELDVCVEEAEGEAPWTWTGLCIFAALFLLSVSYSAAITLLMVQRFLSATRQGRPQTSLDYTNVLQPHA

B1: CL-2C mAb 1 (antibody, V domains shown)
VH: QVQLVQSGAEVMKPGSSVKVSCKASGYTFSWYWLEWVRQAPGHGLEWMGEIDPGTFTTHYNEKFKARVTFTADTSTSTAYMELSSLRSEDTAVYYCARFSHFSGSHYDYFDYWGQGTLVTVSS
VL: EIVMTQSPATLSVSPGERATLSCRASQHIGTNIHWYQQKPGQAPRLLIYYASESISGIPARFSGSGSGTEFTLTISSLQSEDFAVYYCQQSWSHPTTFGGGTKVEIK
notes: also called CL-20 mAb 1; VK28H94H + VH58H100BH
For the molecule B1, the “KD Ratio pH 5.5/pH 7.4” value was determined as 4.6.

B2: CL-2C mAb 4 (antibody, V domains shown)
VH: QVQLVQSGAEVMKPGSSVKVSCKASGYTFSWYHLEWVRQAPGHGLEWMGEIDPGTFTTNYNEKFKARVTFTADTSTSTAYMELSSLRSEDTAVYYCARFSHFSGHNYDYFDYWGQGTLVTVSS
VL: EIVMTQSPATLSVSPGERATLSCRASQHIGTNIHWYQQKPGQAPRLLIYYASESISGIPARFSGSGSGTEFTLTISSLQSEDFAVYYCQQSWSHPTTFGGGTKVEIK
notes: also called VK28H94H + VH33H100AH
On to B2, for which the “KD Ratio pH 5.5/pH 7.4” value was determined as 3.3.

B3: CL-2C mAb 10 (antibody, V domains shown)
VH: QVQLVQSGAEVMKPGSSVKVSCKASGYTFSWYWLEWVRQAPGHGLEWMGEIDPGTFTTNYNEKFKARVTFTADTSTSTAYMELSSLRSEDTAVYYCARFSHFSGSNYDYFDYWGQGTLVTVSS
VL: EIVMTQSPATLSVSPGERATLSCRASQSIGTNIHWYQQKPGQAPRLLIYHASESISGIPARFSGSGSGTEFTLTISSLQSEDFAVYYCHQSDSWPTTFGGGTKVEIK
notes: also called VK50H92D89H + VHWT
For B3, the “KD Ratio pH 5.5/pH 7.4” value was 0.7.

B4: CL-2C mAb 19 (antibody, V domains shown)
VH: QVQLVQSGAEVMKPGSSVKVSCKASGYTFSWYHLEWVRQAPGHGLEWMGEIDPGTFTTNYNEKFKARVTFTADTSTSTAYMELSSLRSEDTAVYYCARFSHFSGHNYDYFDYWGQGTLVTVSS
VL: EIVMTQSPATLSVSPGERATLSCRASQSIGTNIHWYQQKPGQAPRLLIYHASESISGIPARFSGSGSGTEFTLTISSLQSEDFAVYYCQQSDSHPTTFGGGTKVEIK
notes: also called VK50H92D94H + VH33H100AH
Take B4: the “KD Ratio pH 5.5/pH 7.4” value stood at 5.2.

B5: CL-2C mAb 16 (antibody, V domains shown)
VH: QVQLVQSGAEVMKPGSSVKVSCKASGYTFSWYWLEWVRQAPGHGLEWMGEIDPGTFTTHYNEKFKARVTFTADTSTSTAYMELSSLRSEDTAVYYCARFSHFSGSHYDYFDYWGQGTLVTVSS
VL: EIVMTQSPATLSVSPGERATLSCRASQSIGTNIHWYQQKPGQAPRLLIYHASESISGIPARFSGSGSGTEFTLTISSLQSEDFAVYYCQQSDSHPTTFGGGTKVEIK
notes: also called VK50H92D94H + VH58H100BH
Consider B5, for which the “KD Ratio pH 5.5/pH 7.4” value was 4.7.

B6: CL-2C mAb 8 (antibody, V domains shown)
VH: QVQLVQSGAEVMKPGSSVKVSCKASGYTFSWYHLEWVRQAPGHGLEWMGEIDPGTFTTNYNEKFKARVTFTADTSTSTAYMELSSLRSEDTAVYYCARFSHFSGSHYDYFDYWGQGTLVTVSS
VL: EIVMTQSPATLSVSPGERATLSCRASQSIGTNIHWYQQKPGQAPRLLIYHASESISGIPARFSGSGSGTEFTLTISSLQSEDFAVYYCHQSDSWPTTFGGGTKVEIK
notes: also called VK50H92D89H + VH33H100BH
As to B6, the “KD Ratio pH 5.5/pH 7.4” value is 2.8.

B7: CL-2C mAb 13 (antibody, V domains shown)
VH: QVQLVQSGAEVMKPGSSVKVSCKASGYTFSWYHLEWVRQAPGHGLEWMGEIDPGTFTTNYNEKFKARVTFTADTSTSTAYMELSSLRSEDTAVYYCARFSHFSGSHYDYFDYWGQGTLVTVSS
VL: EIVMTQSPATLSVSPGERATLSCRASQSIGTNIHWYQQKPGQAPRLLIYHASESISGIPARFSGSGSGTEFTLTISSLQSEDFAVYYCQQSWSHPTTFGGGTKVEIK
notes: also called VK50H94H + VH33H100BH
B7: the “KD Ratio pH 5.5/pH 7.4” value came out at 17.3.

B8: CL-2C mAb 14 (antibody, V domains shown)
VH: QVQLVQSGAEVMKPGSSVKVSCKASGYTFSWYHLEWVRQAPGHGLEWMGEIDPGTFTTNYNEKFKARVTFTADTSTSTAYMELSSLRSEDTAVYYCARFSHFSGHNYDYFDYWGQGTLVTVSS
VL: EIVMTQSPATLSVSPGERATLSCRASQSIGTNIHWYQQKPGQAPRLLIYHASESISGIPARFSGSGSGTEFTLTISSLQSEDFAVYYCQQSWSHPTTFGGGTKVEIK
notes: also called VK50H94H + VH33H100AH
Regarding B8, the “KD Ratio pH 5.5/pH 7.4” value stood at 3.2.

B9: CL-2C mAb 9 (antibody, V domains shown)
VH: QVQLVQSGAEVMKPGSSVKVSCKASGYTFSWYHLEWVRQAPGHGLEWMGEIDPGTFTTNYNEKFKARVTFTADTSTSTAYMELSSLRSEDTAVYYCARFSHFSGHNYDYFDYWGQGTLVTVSS
VL: EIVMTQSPATLSVSPGERATLSCRASQSIGTNIHWYQQKPGQAPRLLIYHASESISGIPARFSGSGSGTEFTLTISSLQSEDFAVYYCHQSDSWPTTFGGGTKVEIK
notes: also called VK50H92D89H + VH33H100AH
For the molecule B9, the “KD Ratio pH 5.5/pH 7.4” value was determined as 2.5.

B10: CL-2C mAb 12 (antibody, V domains shown)
VH: QVQLVQSGAEVMKPGSSVKVSCKASGYTFSWYHLEWVRQAPGHGLEWMGEIDPGTFTTNYNEKFKARVTFTADTSTSTAYMELSSLRSEDTAVYYCARFSHFSGSNHDYFDYWGQGTLVTVSS
VL: EIVMTQSPATLSVSPGERATLSCRASQSIGTNIHWYQQKPGQAPRLLIYHASESISGIPARFSGSGSGTEFTLTISSLQSEDFAVYYCQQSWSHPTTFGGGTKVEIK
notes: also called VK50H94H + VH33H100CH
For B10, the “KD Ratio pH 5.5/pH 7.4” value was 3.9.

B11: CL-2C mAb 26 (antibody, V domains shown)
VH: QVQLVQSGAEVMKPGSSVKVSCKASGYTFSWYWLEWVRQAPGHGLEWMGEIDPGTFTTHYNEKFKARVTFTADTSTSTAYMELSSLRSEDTAVYYCARFSHFSGSHYDYFDYWGQGTLVTVSS
VL: EIVMTQSPATLSVSPGERATLSCRASQSIGTNIHWYQQKPGQAPRLLIYHASESISGIPARFSGSGSGTEFTLTISSLQSEDFAVYYCQQSWSWPTTFGGGTKVEIK
notes: also called VK50H + VH58H100BH
B11: the “KD Ratio pH 5.5/pH 7.4” value came out at 8.9.

B12: CL-2C mAb 11 (antibody, V domains shown)
VH: QVQLVQSGAEVMKPGSSVKVSCKASGYTFSWYWLEWVRQAPGHGLEWMGEIDPGTFTTHYNEKFKARVTFTADTSTSTAYMELSSLRSEDTAVYYCARFSHFSGSHYDYFDYWGQGTLVTVSS
VL: EIVMTQSPATLSVSPGERATLSCRASQSIGTNIHWYQQKPGQAPRLLIYHASESISGIPARFSGSGSGTEFTLTISSLQSEDFAVYYCQQSWSHPTTFGGGTKVEIK
notes: also called VK50H94H + VH58H100BH
As to B12, the “KD Ratio pH 5.5/pH 7.4” value was determined as 6.

B13: CL-2C mAb 17 (antibody, V domains shown)
VH: QVQLVQSGAEVMKPGSSVKVSCKASGYTFSWYHLEWVRQAPGHGLEWMGEIDPGTFTTNYNEKFKARVTFTADTSTSTAYMELSSLRSEDTAVYYCARFSHFSGSNHDYFDYWGQGTLVTVSS
VL: EIVMTQSPATLSVSPGERATLSCRASQSIGTNIHWYQQKPGQAPRLLIYHASESISGIPARFSGSGSGTEFTLTISSLQSEDFAVYYCQQSDSHPTTFGGGTKVEIK
notes: also called VK50H92D94H + VH33H100CH
Take B13: the “KD Ratio pH 5.5/pH 7.4” value stood at 7.1.

B14: CL-2C mAb 18 (antibody, V domains shown)
VH: QVQLVQSGAEVMKPGSSVKVSCKASGYTFSWYHLEWVRQAPGHGLEWMGEIDPGTFTTNYNEKFKARVTFTADTSTSTAYMELSSLRSEDTAVYYCARFSHFSGSHYDYFDYWGQGTLVTVSS
VL: EIVMTQSPATLSVSPGERATLSCRASQSIGTNIHWYQQKPGQAPRLLIYHASESISGIPARFSGSGSGTEFTLTISSLQSEDFAVYYCQQSDSHPTTFGGGTKVEIK
notes: also called VK50H92D94H + VH33H100BH
B14: the “KD Ratio pH 5.5/pH 7.4” value is 0.2.

B15: CL-2C mAb 3 (antibody, V domains shown)
VH: QVQLVQSGAEVMKPGSSVKVSCKASGYTFSWYHLEWVRQAPGHGLEWMGEIDPGTFTTNYNEKFKARVTFTADTSTSTAYMELSSLRSEDTAVYYCARFSHFSGSHYDYFDYWGQGTLVTVSS
VL: EIVMTQSPATLSVSPGERATLSCRASQHIGTNIHWYQQKPGQAPRLLIYYASESISGIPARFSGSGSGTEFTLTISSLQSEDFAVYYCQQSWSHPTTFGGGTKVEIK
notes: also called VK28H94H + VH33H100BH
B15: the “KD Ratio pH 5.5/pH 7.4” value was found to be 8.4.

B16: CL-2C mAb 20 (antibody, V domains shown)
VH: QVQLVQSGAEVMKPGSSVKVSCKASGYTFSWYWLEWVRQAPGHGLEWMGEIDPGTFTTNYNEKFKARVTFTADTSTSTAYMELSSLRSEDTAVYYCARFSHFSGSNYDYFDYWGQGTLVTVSS
VL: EIVMTQSPATLSVSPGERATLSCRASQSIGTNIHWYQQKPGQAPRLLIYHASESISGIPARFSGSGSGTEFTLTISSLQSEDFAVYYCQQSDSHPTTFGGGTKVEIK
notes: also called VK50H92D94H + VHWT
In the case of B16, the “KD Ratio pH 5.5/pH 7.4” value is 1.1.

B17: CL-2C mAb 2 (antibody, V domains shown)
VH: QVQLVQSGAEVMKPGSSVKVSCKASGYTFSWYHLEWVRQAPGHGLEWMGEIDPGTFTTNYNEKFKARVTFTADTSTSTAYMELSSLRSEDTAVYYCARFSHFSGSNHDYFDYWGQGTLVTVSS
VL: EIVMTQSPATLSVSPGERATLSCRASQHIGTNIHWYQQKPGQAPRLLIYYASESISGIPARFSGSGSGTEFTLTISSLQSEDFAVYYCQQSWSHPTTFGGGTKVEIK
notes: also called CL-20 mAb 2; VK28H94H + VH33H100CH
As to B17, the “KD Ratio pH 5.5/pH 7.4” value was found to be 8.5.

B18: CL-2C mAb 6 (antibody, V domains shown)
VH: QVQLVQSGAEVMKPGSSVKVSCKASGYTFSWYWLEWVRQAPGHGLEWMGEIDPGTFTTHYNEKFKARVTFTADTSTSTAYMELSSLRSEDTAVYYCARFSHFSGSHYDYFDYWGQGTLVTVSS
VL: EIVMTQSPATLSVSPGERATLSCRASQSIGTNIHWYQQKPGQAPRLLIYHASESISGIPARFSGSGSGTEFTLTISSLQSEDFAVYYCHQSDSWPTTFGGGTKVEIK
notes: also called VK50H92D89H + VH58H100BH
Consider B18, for which the “KD Ratio pH 5.5/pH 7.4” value was found to be 6.1.

B19: CL-2C mAb 7 (antibody, V domains shown)
VH: QVQLVQSGAEVMKPGSSVKVSCKASGYTFSWYHLEWVRQAPGHGLEWMGEIDPGTFTTNYNEKFKARVTFTADTSTSTAYMELSSLRSEDTAVYYCARFSHFSGSNHDYFDYWGQGTLVTVSS
VL: EIVMTQSPATLSVSPGERATLSCRASQSIGTNIHWYQQKPGQAPRLLIYHASESISGIPARFSGSGSGTEFTLTISSLQSEDFAVYYCHQSDSWPTTFGGGTKVEIK
notes: also called VK50H92D89H + VH33H100CH
With B19, the “KD Ratio pH 5.5/pH 7.4” value is 7.9.

B20: CL-2C mAb 15 (antibody, V domains shown)
VH: QVQLVQSGAEVMKPGSSVKVSCKASGYTFSWYWLEWVRQAPGHGLEWMGEIDPGTFTTNYNEKFKARVTFTADTSTSTAYMELSSLRSEDTAVYYCARFSHFSGSNYDYFDYWGQGTLVTVSS
VL: EIVMTQSPATLSVSPGERATLSCRASQSIGTNIHWYQQKPGQAPRLLIYHASESISGIPARFSGSGSGTEFTLTISSLQSEDFAVYYCQQSWSHPTTFGGGTKVEIK
notes: also called VK50H94H + VHWT
Regarding B20, the “KD Ratio pH 5.5/pH 7.4” value turned out to be 1.1.

B21: CL-2C mAb 5 (antibody, V domains shown)
VH: QVQLVQSGAEVMKPGSSVKVSCKASGYTFSWYWLEWVRQAPGHGLEWMGEIDPGTFTTNYNEKFKARVTFTADTSTSTAYMELSSLRSEDTAVYYCARFSHFSGSNYDYFDYWGQGTLVTVSS
VL: EIVMTQSPATLSVSPGERATLSCRASQHIGTNIHWYQQKPGQAPRLLIYYASESISGIPARFSGSGSGTEFTLTISSLQSEDFAVYYCQQSWSHPTTFGGGTKVEIK
notes: also called VK28H94H + VHWT
Regarding B21, the “KD Ratio pH 5.5/pH 7.4” value stood at 0.3.
